Measurements from US20050079613A1, “Downregulation of cell surface glycoproteins by a family of human ubiquitin ligases” (Oregon Health & Science University, priority 2002, published 2005).

Legend:
Format in all cases: cell-based, human
HLA class I (MHC I) = assay: Surface expression of endogenous MHC I on transfected HeLa cells, flow cytometry
Experimental: (§1) Flow cytometry. Cells were removed from tissue culture dishes with 0.05% Trypsin-EDTA (Invitrogen), washed with ice-cold PBS, and incubated with appropriate antibody for 30 minutes at 4° C. The cells were washed with ice-cold PBS and either resuspended in ice-cold PBS or incubated with PE-conjugated anti-mouse secondary antibody (DAKO) and washed again before analysis with a BD Biosciences (San Jose, Calif.) FACScalibur flow cytometer.
(§2) The ability to downregulate MHC I is common to KSHV-K3, KSHV-K5, MHV68-K3 and MV-M153R (Coscoy and Ganem, 2000, supra; Guerin et al., 2002, supra; Ishido et al., 2000b supra; Stevenson et al., 2000, supra). Additional substrates are ICAM-1 and B7.2 (but not B7.1) for KSHV-K5, as well as CD95 and CD4 for M153R (Coscoy and Ganem, 2001, supra; Guerin et al., 2002, supra; Ishido et al., 2000a, supra; Mansouri et al., 2003, supra). Since only low copy numbers were detected in HeLa cells for transcripts corresponding to each of the MARCH-proteins (FIG. 7C, and data not shown), HeLa cells were transfected with expression plasmids for MARCH-I, II, III, IV, V and VIII. Surface expression of selected glycoproteins was monitored upon transfection. The following known substrates for viral K3-family members were tested: Fas (CD95) and HLA class I (MHC I), both of which are endogenously expressed in HeLa cells, as well as transfected HLA-A2.1 or CD4. […] Surface expression of the respective markers was analyzed by flow cytometry. GFP was used to identify transfected cells.
With regards to whether MHC I downregulation by MARCH-IV was only observed at very high expression levels, since the viral immune evasion genes seem to be dedicated to MHC I downregulation, MHC I expression was compared at different expression levels of MARCH-IV or KSHV-K5 by taking advantage of the tetracycline-regulatable system to partially express either protein (Gossen, M. and H. Bujard, Proc. Natl. Acad. Sci. USA 89:5547-5551, 1992). Tet-off HeLa cells were transfected with either MARCH-IV or with KSHV-K5 in the presence of increasing amounts of tetracycline to shut off transcription. […]

CD4 = assay: Surface expression of co-transfected CD4 on HeLa cells, flow cytometry
Experimental: as §1
as §2, with “transfection.” for “transfection. The following known substrates for viral K3-family members were tested: Fas (CD95) and HLA class I (MHC I), both of which are endogenously expressed in HeLa cells, as well as transfected HLA-A2.1 or CD4.”, “GFP was used to identify transfected cells.” left out

HLA-A2.1 = assay: Pulse-chase of HLA-A2.1 maturation and turnover in transfected HeLa cells; details: HeLa cells co-transfected with HLA-A2.1 and MARCH-IV, chase up to 8 hours
Experimental: Metabolic labeling, immunoprecipitation and Western blotting. HeLa cells were grown to 80% confluency in 100 mm tissue culture dishes and transfected as above. Cells were incubated in serum-free and methionine-free medium for 30 minutes, and metabolically labeled with ^35S-cysteine/^35S-methionine (250 μCi, Amersham) for the indicated time. After labeling, cells were washed twice with PBS and either lysed immediately in PBS containing 1% Triton X-100 and protease inhibitors (Roche, Indianapolis, Ind.), or the label was chased with excess (2 mM) unlabeled cysteine and methionine in the presence or absence of specific inhibitors for the indicated time. The cell lysates were precleared with protein A/G agarose beads and incubated with 3 μg of antibody for one hour and followed by two hours incubation with protein A/G beads. Immunoprecipated proteins were washed five times with 0.1% Triton X-100 in PBS. All samples were boiled in SDS buffer and analyzed by SDS-PAGE gel electrophoresis. Where indicated, samples were treated with Endoglycosidase H (Roche) according to manufacturer's instructions. Briefly, samples were initially denatured at 100° C. in 40 μl of 0.3% SDS, 150 mM 2-mercaptoethanol, 50 mM sodium acetate, pH 5.5 and incubated with 4 milli-Units of Endo H overnight at 37° C. All samples were boiled in SDS buffer and analyzed by SDS-PAGE gel electrophoresis. […]

B1: MARCH-IV: human membrane-associated RING-CH ubiquitin ligase, SEQ ID NOS:45 and 57; construct used lacks the first 63 amino-acids (protein)
chain: WYCYGLCAPAPQMLRHQGLLKCRCRMLFNDLKVFLLRRPPQAPLPMHGDPQPPGLAANNTLPALGAGGWAGWRGPREVVGREPPPVPPPPPLPPSSVEDDWGGPATEPPASLLSSASSDDFCKEKTEDRYSLGSSLDSGMRTPLCRICFQGPEQGELLSPCRCDGSVKCTHQPCLIKWISERGCWSCELCYYKYHVIAISTKNPLQWQAISLTVIEKVQVAAAILGSLFLIASISWLIWSTFSPSARWQRQDLLFQICYGMYGFMDVVCIGLIIHEGPSVYRIFKRWQAVNQQWKVLNYDKTKDLEDQKAGGRTNPRTSSSTQANIPSSEEETAGTPAPEQGPAQAAGHPSGPLSHHHCAYTILHILSHLRPHEQRSPPGSSRELVMRVTTV
With B1 the “surface expression of MHC I” value (HLA class I (MHC I); HeLa cells transfected with MARCH plasmid and GFP, 24 h post-transfection) was “significantly downregulated”, the “MHC I downregulation at tetracycline-regulated expression levels” value (HLA class I (MHC I); Tet-off HeLa cells, increasing amounts of tetracycline, below the detectable level of RING-CH protein expression) was “partial MHC I downregulation” and the “surface expression of transfected CD4” value (CD4; HeLa cells co-transfected with CD4 and MARCH plasmid) was “reduced the surface expression”. For the same molecule, the “downregulation of CD4 with lysines removed from the cytoplasmic tail” value (CD4; HeLa cells, lysine-deleted CD4) was “resistance” and the “fate of HLA-A2.1 in pulse-chase” value (HLA-A2.1) was “exits the ER but is degraded”.
